B1: GS1885: dsRNA trigger SEQ ID NO 213; gene target ribosomal processing RNA binding nucleolar protein (nucleic acid)
chain: TACGGATCGATAGACGGGTGAGTGAAAGATGAAGTGCAGGATTTTTCTCTATAAGTTTCTTACGTTGTAGCGCCGAAGCTTCTCTAAGTTTAATCTCTGATGGAGATAAAACGTTATATATAGGCGTACCAACAGCAATTGTCCCCTCTTTAAGTAGATATAACTTTCGCTTATCTTTGTCTCGGTCAGTGCGGAAGTTTGTCCCAGCTTCTGTAAGTTTTACAGCTTTTTCTCGATTAACTGCTCTTGACACTTGAAGTACGCGACCTTCTATTGTGTATAAGCCATTCTTATCAGCAGTTTCATCCTCTAAAATAGAGTTTTTAGCTTTAACAGCGTTTGCACCACTTTTGAAGGTACGAGGTGCACCATGGTAACAAGAGTCCGCATCTTCTTGTCTATAGAAGCAAACAAAGCCAGTGCCTTTAGGTCGACCAGTATTATTGTCTATGACCA
B2: GS2668 (nucleic acid)
sense: UUCCUAGUCAAACGUGCAUCUAGUGGAGGUGUACAAUUUUCUCGUGAUCCCCUAAACUUAACAAAUGUGCAUUCUCGCAAAUAUGCCGGAUUUGUUAACGAUAAGGCUGUCGGAAUUCUUCCCAUUGAAGGUGGUAAAGGAGGUAUUACUUUGAUCACCAAAAAAACUAAAUUUACCCAAAAACCUUCUAGCGCCAUAUACACAACAGUUUUUGGUGGUAAUAAAACUUCAAGACGGACAUAUAAGGGGGUUGUCAAUACUGUUGUCAAAUCAAGAUAUCGAUCUGAUCUUCGUGCUGAAGCUGUUGCUCGUGCGUCUGCUAUUCGGUACUCGCAAAAACCAAAGGGUGAUCUUCCUAAGAAGAAAUUGCGUGGAUCAAAAGCUAAAAAGG
antisense: CCUUUUUAGCUUUUGAUCCACGCAAUUUCUUCUUAGGAAGAUCACCCUUUGGUUUUUGCGAGUACCGAAUAGCAGACGCACGAGCAACAGCUUCAGCACGAAGAUCAGAUCGAUAUCUUGAUUUGACAACAGUAUUGACAACCCCCUUAUAUGUCCGUCUUGAAGUUUUAUUACCACCAAAAACUGUUGUGUAUAUGGCGCUAGAAGGUUUUUGGGUAAAUUUAGUUUUUUUGGUGAUCAAAGUAAUACCUCCUUUACCACCUUCAAUGGGAAGAAUUCCGACAGCCUUAUCGUUAACAAAUCCGGCAUAUUUGCGAGAAUGCACAUUUGUUAAGUUUAGGGGAUCACGAGAAAAUUGUACACCUCCACUAGAUGCACGUUUGACUAGGAA
B3: ES48: dsRNA trigger SEQ ID NO 111; gene target Hypotethical effector (nucleic acid)
DNA: AGTAGCAGCGGACATCGCCGACGGCCCTACACTGTCAGGGCTACCTGGGGTTGCAGATTTCGACTTGTCTTCAGCGTCCTCCCCAAGTCTCGAGAAAAGACTTTGTTTTAGACGAGGATGCAATAAAAAATCTAAACACGCATCAGGCTTCCAATGTAAGAAGAAACATTTCAGTCTGGCGGCGGTAGAAAAAGCAAAAGCCGTAGCCTGCGCAAAGATCAAAGAAAACAAGCAGCGCAATGCCTTTCCTGCTCTTTACACCGCAACCGATTTCGAAACTCCCGGGCCTTATCTAGAATGGCCAATCAAGCGCAATGGAAGATTTTGGAATAATTTGAGAAGAGGCCGTTACCGCATCATCCTAACCGAAAACTGCAAAGTTGTCGGTGCTGTGATCCGGAAAAGCAATGGTTCATACCGCACATGCAAGAAACTGAGCGAAAAAGATGAAGATGAAGTTGATGATGATGATGAAAAAGAA
B4: GS2679 (nucleic acid)
sense: CCGCCAUACUGGGGGAUUAGAACCUUGUCGCCAACCUUGACAUUACAAGACACUCUGUUUCCAUCUUUGCCAACUGCACCAGGUCCUACAGCUAUAACGUGGGCUUCAUUGAGUUCCUUGACACUUUUUUCGGGAAGAAAAAUGCCACUCGCAGUCUUUGCUUCUGCCUUCACUCGUUGUACAAGAACCCGGUCAAGUAAAGGAGCAAGGGACUUGAUUGAUUUGAGUGUUGAAGCCAUGUUAGAGGAUAACGGACAGUGAAUUAUAAAGACUGUGCAAUAAAAUUGGUUUAAGAGAAAAGAUCUUUGAAGUCGCGUUACGUUAAAGUCGCUAUCUGUU
antisense: AACAGAUAGCGACUUUAACGUAACGCGACUUCAAAGAUCUUUUCUCUUAAACCAAUUUUAUUGCACAGUCUUUAUAAUUCACUGUCCGUUAUCCUCUAACAUGGCUUCAACACUCAAAUCAAUCAAGUCCCUUGCUCCUUUACUUGACCGGGUUCUUGUACAACGAGUGAAGGCAGAAGCAAAGACUGCGAGUGGCAUUUUUCUUCCCGAAAAAAGUGUCAAGGAACUCAAUGAAGCCCACGUUAUAGCUGUAGGACCUGGUGCAGUUGGCAAAGAUGGAAACAGAGUGUCUUGUAAUGUCAAGGUUGGCGACAAGGUUCUAAUCCCCCAGUAUGGCGG
B5: GS2674 (nucleic acid)
sense: UUGAGAAAUUAUUUUCUCUUAUAGCGAAUUUGAUUGAGUAUUUUAUGUGAUAUUCACGUUGUUGGACCCUUAUAGAUCUGGGAUUUAGGGUCUUAGAAGACUCGUCUUAAAGCUUGCCCCAACGUAUGAAGUAUUAAAUACGUUACUUUUGAUAUGAAUAUAUUUUUUAUAUACACGAAUUAAUUUAAUCGAAGAGACCAAAGCCCAUAUCUUCAUCAGACUCUUCUUCUUUUUCUUCUU
antisense: AAGAAGAAAAAGAAGAAGAGUCUGAUGAAGAUAUGGGCUUUGGUCUCUUCGAUUAAAUUAAUUCGUGUAUAUAAAAAAUAUAUUCAUAUCAAAAGUAACGUAUUUAAUACUUCAUACGUUGGGGCAAGCUUUAAGACGAGUCUUCUAAGACCCUAAAUCCCAGAUCUAUAAGGGUCCAACAACGUGAAUAUCACAUAAAAUACUCAAUCAAAUUCGCUAUAAGAGAAAAUAAUUUCUCAA
B6: GS2666 (nucleic acid)
sense: UUCGGCAUAUCAACGUAAAAAAAAAAUAAAUCGACACAAAACAGCUCAAUACCGUAGUUUAUCACCAUGCUUACAAUUACGUAAACGGAGGUCUGCAAAGAGCCUUAAGUCUUUGGAAAUAUCAUGCAGUAGUGGUAUUGAAAAAGGAACCACUAGCUUCGUAAACUAUACCCCAGAAGAUUCCCAGAAGAUUUUAAAUGGAGUUGCUCCGUCUGGGAGUAACAAGACCAAAGCUCGAAGGGAGAAAGAGGCCUUGGAAAAACGCCAAAAGUUAU
antisense: AUAACUUUUGGCGUUUUUCCAAGGCCUCUUUCUCCCUUCGAGCUUUGGUCUUGUUACUCCCAGACGGAGCAACUCCAUUUAAAAUCUUCUGGGAAUCUUCUGGGGUAUAGUUUACGAAGCUAGUGGUUCCUUUUUCAAUACCACUACUGCAUGAUAUUUCCAAAGACUUAAGGCUCUUUGCAGACCUCCGUUUACGUAAUUGUAAGCAUGGUGAUAAACUACGGUAUUGAGCUGUUUUGUGUCGAUUUAUUUUUUUUUUACGUUGAUAUGCCGAA
B7: GS2656 (nucleic acid)
sense: GCCCGCUUCCUCAGCUAUUCUUGCCUGUUUUGCGUUGACCACAUCCAUAAUUACGCCACCCUUCAACAUGCGAGCCAGGCCGGUUUUGACCCCAAAAUUCUUUUGUCCCACAGGCUUUGAGGUGCCUUUAUUGAUUCCAUUAUUAACGCCACCAUCAGCAGAGACAGGAAUAGGGAUUUCAGUGGCCAUCUUGCAAUUAUCUCAUAAAUAGUGGUAUUAGUUAAGCGCCCGAAGGUUCUUGUCAAAUUCUUCUUGCAAAUAUUAGUAUCAAGAGUUUGCUGAAGAUAUAAAACUAAGAAACGAAUUGUAAUUAACAAAUGGAUUGUAAAAUUUCUCAAAAUGACCGCCUGGUCGAUAUGACUAUGACGUUUAGAGCCAGGAAGUGUUGCAGGAAAAA
antisense: UUUUUCCUGCAACACUUCCUGGCUCUAAACGUCAUAGUCAUAUCGACCAGGCGGUCAUUUUGAGAAAUUUUACAAUCCAUUUGUUAAUUACAAUUCGUUUCUUAGUUUUAUAUCUUCAGCAAACUCUUGAUACUAAUAUUUGCAAGAAGAAUUUGACAAGAACCUUCGGGCGCUUAACUAAUACCACUAUUUAUGAGAUAAUUGCAAGAUGGCCACUGAAAUCCCUAUUCCUGUCUCUGCUGAUGGUGGCGUUAAUAAUGGAAUCAAUAAAGGCACCUCAAAGCCUGUGGGACAAAAGAAUUUUGGGGUCAAAACCGGCCUGGCUCGCAUGUUGAAGGGUGGCGUAAUUAUGGAUGUGGUCAACGCAAAACAGGCAAGAAUAGCUGAGGAAGCGGGC
B8: GS2660 (nucleic acid)
sense: GUCGUAAUGAUCUUGGCCAAUAAUUCGAGGGUCAAGCAUUCGAGAUUUAGACUCAAGGGGAUCUACCGCUGGAUAGAUACCUAAUUCUGAAAUACCACGUGAUAAUACAGUAGUUGCAUCUAAAUGAGCAAACGUUGUUGCGGGUGCUGGAUCCGUCAGAUCAUCAGCUGGCACGUAAACAGCUUGCACUGAAGUGAUUGAGCCUUUGGUAGUUGUUGUAAUUCGCUCUUGCAUAAGACCCAUAUCUACUGCAAGUGUAGGUUGAUAACCAACUGCAGAGGGAAUACGUCCGAGAAGAGCAGAGACUUCGGAGCCGGCCUGAGUGAAACGAAAAAUAUUAUCAAUGAAAAGUAAUACAUCUUGUCCUUCUUCAUCACGGAAAUACUCAGCAAUAGUUA
antisense: UAACUAUUGCUGAGUAUUUCCGUGAUGAAGAAGGACAAGAUGUAUUACUUUUCAUUGAUAAUAUUUUUCGUUUCACUCAGGCCGGCUCCGAAGUCUCUGCUCUUCUCGGACGUAUUCCCUCUGCAGUUGGUUAUCAACCUACACUUGCAGUAGAUAUGGGUCUUAUGCAAGAGCGAAUUACAACAACUACCAAAGGCUCAAUCACUUCAGUGCAAGCUGUUUACGUGCCAGCUGAUGAUCUGACGGAUCCAGCACCCGCAACAACGUUUGCUCAUUUAGAUGCAACUACUGUAUUAUCACGUGGUAUUUCAGAAUUAGGUAUCUAUCCAGCGGUAGAUCCCCUUGAGUCUAAAUCUCGAAUGCUUGACCCUCGAAUUAUUGGCCAAGAUCAUUACGAC

Each molecule was assayed on GS1885, GS3336, GS1875, GS1879 transcripts (assay: Gene specific qRT-PCR of GS1885, GS3336, GS1875, GS1879 transcripts in leaf discs (Example 3)). Conditions: six-days post inoculation, FIG. 4.
Type: in vivo, E. necator
Experimental: FIG. 4. Gene specific qRT-PCR analysis of GS1885, GS3336, GS1875, GS1879 transcripts at 6-dpi in leaf discs. The 2-ΔΔCT method was used to analyze the relative changes in gene expression. Gene expression was normalized to the untreated control. GS145 (a non-target dsRNA sequence) was also included as control. Asterisks denote significant differences compared to untreated control (UTC). Statistical comparisons between treatments were performed with ANOVA, followed by Welch's analysis.
qRT-PCR was performed to validate the effect of exogenous dsRNA on the expression of selected targeted genes for which activity of dsRNA had been shown by leaf assay (as described in Example 2). Samples were treated with dsRNA, inoculated after 24 hours and six leaf discs per treatment were collected at six-days post inoculation (dpi) for further analysis.

| Molecule | gene silencing in E. necator by sprayed dsRNA / gene expression levels vs untreated control |
| --- | --- |
| B1 | Induced Gene Silencing |

What follows are molecules tested on E. necator (assay: Leaf disc assay, dry inoculum (settling tower), decrease in disease severity / hyphal growth (Example 2)). Conditions: decrease in disease severity (hyphal growth) relative to untreated control; time point 1 (untreated control hyphal growth ≥50%); value ± SE.

| Molecule | % decrease =/− SE TP1 |
| --- | --- |
| B2 | 46 ± 3% |
| B3 | 15 ± 6% |
| B4 | 25 ± 3% |
| B1 | 67 ± 4% |
| B5 | 17 ± 4% |
| B6 | 14 ± 7% |
| B7 | 34 ± 5% |

Same assay, conditions: decrease in disease severity (hyphal growth) relative to untreated control; time point 2; value ± SE

| Molecule | % decrease =/− SE TP2 |
| --- | --- |
| B2 | 38 ± 4% |
| B3 | 1 ± 3% |
| B4 | 24 ± 5% |
| B8 | 24 ± 8% |
| B1 | 58 ± 5% |
| B5 | 5 ± 6% |
| B7 | 46 ± 6% |
